The values below are quoted from earlier work in PMC3212873.

The target of data set [1] is T1, Cys35 (UniProt position 36, EWCGPCKMIAP). In words: UV-vis. Particulars: reduced Trx-(SH)2, no protein ligand.
Data set [2] addresses T2, Cys32 (UniProt position 33, FWAEWCGPCKM). In words: UV-vis. Particulars: reduced Trx-(SH)2, no protein ligand.
Data set [3] addresses T2, Cys32. In words: fluorescence. The settings on record: reduced Trx-(SH)2, no protein ligand.
In data set [4] the target is T1, Cys35. Nature of the data set: Raman. The settings on record: reduced Trx-(SH)2, no protein ligand.
Data set [5] deals with T2, Cys32. Nature of the data set: Raman. The settings on record: reduced Trx-(SH)2, no protein ligand.
The target in data set [6] is T1, Cys35. In words: chemical modification. The settings on record: reduced Trx-(SH)2, no protein ligand.
The target in data set [7] is T2, Cys32. In words: chemical modification. Particulars: reduced Trx-(SH)2, no protein ligand.
The target of data set [8] is T2, Cys32. Nature of the data set: NMR. The settings on record: reduced Trx-(SH)2, no protein ligand.
Data set [9] has as its target Cys32 (UniProt position 33, FWAEWCPYCKM). The settings on record: reduced variant.

Several values for one entry are separate records, joined by “and”; a condition that tells them apart may be missing. Equal values may be shown once.

For orientation: pKa means the negative logarithm of the acid dissociation constant. Consider “Thioredoxin 1 (EcTrx) (Escherichia coli)”, for which the pKa was 9-10 in data set [1]; 9-10 in [2]; 6.28 in data set [3]; 7.9 in data set [4]; 7.1 in [5]; 9.0 in data set [6]. For the same substance, the pKa is 6.7 in [7]; 7.4 and 7.0-7.1 and 7.5 or 9.2 in data set [8].

Regarding “Thioredoxin 1, glutaredoxin-like active-site variant (Grx-like EcTrx, CPYC) (Escherichia coli; G33P;P34Y)”, the pKa in data set [9] is 5.9.
